From the DeepSol protein solubility set

experiment: soluble on expression in E. coli; label from the status in PepcDB or PDB records

Row | Sequence | soluble on expression in E. coli
1 | LLLLLPQGGDVRGGPGVREPGQAPQDRGGRDRLLGRGERESPGSDASGGERYSSGGGDGGDGDGGSGGGGDGEEGEGGEEGDEGDGDEGGSGGDESGSGGGPRSMPLSTEGGGSHHKVSVSPVVHVRGLCESVVEADLVEALEKFGTICYVMMMPFKRQALVEFENIDSAKECVTFAADVPVYIAGQQAFFNYSTSKRITRPGNTDDPSGGNKVLLLSIQNPLYPITVDVLYTVCNPVGKVQRIVIFKRNGIQAMVEFESVLCAQKAKAALNGADIYAGCCTLKIEYARPTRLNVIRNDNDSWDYTKPYLGRRDRGKGRQRQAILGDHPSSFRHDGYGSHGPLLPLPSRYRMGSRDTPELVAYPLPQASSSYMHGGSPSGSVVMVSGLHQLKMNCSRVFNLFCLYGNIEKVKFMKTIPGTALVEMGDEYAVERAVTHLNNVKLFGKRLNVCVSKQHSVVPSQIFELEDGTSSYKDFAMSKNNRFTSAGQASKNIIQPPSCVLHYYNVPLCVTEETFTKLCNDHEVLPFIKYKVFDAKASAKTLSGLLEWKCKTDAVEALTALNHYQIRVPNGSNPYTLKLCFSTSSHL | soluble
2 | MRSERSERSDDTDGDTTALALKILVAGGFGVGKTTLVGAVSEIRPLRTEELLSEAGRLVDDTDGIDRKVTTTVAMDFGRITIRSGLSLYLFGTPGQDRFWFLWDELAQGALGAVVLADTRRLADCFPAVDYFEHRHIPFVVAVNCFTGARRHDEYSVLRALDLDPGTPVVLCDARDRDSGKEVLIRLVEYAGRMHTARLLDSVRLEHHHHHH | not soluble
3 | MGSDKIHHHHHHMAKINLIIAETDGAYLKGLVNYISSNFEDTFRITCFTNREYLEKYISSGRISDILLIKTDMFYEGLMKNSIKSIAILSEGGNMDEFNGLPVVKKYQPGEKLCREILNIYYNNNPEVAPCKEVKKQEGSIITLYSPVGGIGKSTIAIEMAKKLSDSNKKVLYLNLEDLQSTLVFFECSTSKNMSDFLYFIKERDENFKEVLKDIVLKDEESGINYFAPVDSVLDIEDLKVDDVKFMLQKLIEVNMYNYIIIDLSSTFNINYKTIFEMSSKIIVPIGQDKLSSVKLQNFLKQLDNLENFSFIQNKYKDNLETIIPHVLLREKKPIIQKIYYDEALESVSSLIYLKNRASTFLRCIDELIMKLL | not soluble
4 | MQTELTGKLQKLGFTENEAKIYIGLLRQGEVTAREIHEFTHVPRTKIYSTLNRMSKKKYIEVIEGTPAYFRSIDPEQLLERLRDEFLFSLNETLEELNSAGYGMKNKCC | not soluble
5 | MKNMIKAASLGLIILSSSMMANAAEAAQKIGYINTAQVFQALPQREVVLQKMQEEFKDKAAELQAIQADAKTKIEKLKRDGQLMGQDEVEKLRIEIGQLDSKYKIKAQALEQASARREAEEKQKLFKVIQDAVKKVAEKEGYDIVLDTSSMQYGKPEHNLSEKVIKAIK | not soluble
6 | MGNRSSSHYPPPPHWMHQRTSYSTTTSPYPEAKQRPIAPGAFAEPYMHHNPHHPQSKAQMRRSMISLNADSGYMGGPDSERLRQMRGSRMSLNQIDFEPAMMPPPRILIPPDAKTLKKLEKMEKKHQKLMKKLGARGIPIQMPVPPPPPMHPMYSRAISYDDLHRMHEAPEIDVRMRQRDWRTSDERRGLPTRRETQSQYVKHNYSSTNRRAELNGSLASSSPMTSSEEGGHSSDPWNTSSISSGKRDIISPPMYSSTPHHHNHHNHQQLQHHQVIKSPQPPITKTIEVKVERSEKVEQQVSEPTKRAPPTAAQTASSTSSRIQHNQTLNNSNATYAQPIIRRQPSYGSRSSSIATSQMRCDQSEIDFSWVNEEEDKLKRESKRIDSLPEFYFGMDPPPVPSDNEKENDEKRNRRKSSVLEKTAAFEIEARRNDRKEPSFLSRSSHQLLTTSEIPPADYSPLSIHTKEIGGPAERRIYRIQKQQQQHSSEDRRYRSSIAF | not soluble
7 | NHINPVNPAEPALYLPTQYDVREFAEKTKNETVYVFTSVGEYWPLAWYLRDHRAYFITTGVEGRSFISGNYIVVNATNDMRLDKTNLEFVETMVVRCWTFWTTPELQRIPAFLAFREPLTDVSCMNFSVYRAI | not soluble
8 | MTNVQEQDKRKGGRPPTGRVRKLSKSVTVKFSKPSYEALKLRARKANRKLAEYIRESALNGEVVSGHNAETVAIAKNLIGMANNLNQLANLSHQRGFHETHVYVVDLLRRLKEILDEYRQASYKPKPSSMGRKEDTT | not soluble
9 | MAVELPKAAIERIFRQGIGERRLSQDAKDTIYDFVPTMAEYVANAAKSVLDASGKKTLMEEHLKALADVLMVEGVEDYDGELFGRATVRRILKRAGIERASSDAVDLYNKLICRATEELGEKAAEYADEDGRKTVQGEDVEKAITYSMPKGGEL | soluble
10 | MGHHHHHHSHMWVDDFPLHRSACEGDSELLSRLLSERFSVNQLDSDHWAPIHYACWYGKVEATRILLEKGKCNPNLLNGQLSSPLHFAAGGGHAEIVQILLNHPETDRHITDQQGRSPLNICEENKQNNWEEAAKLLKEAINKPY | not soluble
11 | MGSDKIHHHHHHGDDDDPVVPELNKLTKVSCYKDGASSPLFTADINYTSDGKISNINLGVDKLLFIYSDGKFSVTGIHSGEVIEEYTLSGNVITSKKISQENPYASNEIYVSDEYSYRYSGSNWVLTSWNARWPKEFGTGYEERSYPEYEKYTWENGNVVLYAQSLDSREMRYEYSVAEAPKNFPLRVIGSFSPVGFESVTPLNLLYGIQNRNLPIRAYTYTIPNQSEVKAEYKYTYTTVGDYITGMTIDENDGGTASSYKYTFEYNFAVK | not soluble
12 | TMNNEMSDPQIEEFYTIVKELEKFDTFTNFLDVHQPELAIVFGRTKRRVDELTSALISKGYKAEGLHGDITQAKRLEVLKKFKNDQINILVATDVAARGLDISGVSHVYNFDIPQDTESYTHRIGRTGRAGKEGIAVTFVNPIEMDYIRQIEDANGRKMSALRPPHRKEVLQAREDDIKEKVENWMSKESESRLKRISTELLNEYNDVDLVAALLQELVEANDEVEVQLTFEKPLSRKGRNGKPSGSR | not soluble
13 | MGRLSGKTILVTGAASGIGRAALDLFAREGASLVAVDREERLLAEAVAALEAEAIAVVADVSDPKAVEAVFAEALEEFGRLHGVAHFAGVAHSALSWNLPLEAWEKVLRVNLTGSFLVARKAGEVLEEGGSLVLTGSVAGLGAFGLAHYAAGKLGVVGLARTLALELARKGVRVNVLLPGLIQTPMTAGLPPWAWEQEVGASPLGRAGRPEEVAQAALFLLSEESAYITGQALYVDGGRSIVGPPGLPPGFGPKGGERHAHVL | soluble
14 | MGSDKIHHHHHHMSMKISEKKFNDRVGDGIQDSFMRGAVSSAQTRLYTNRLKAADELGNWEEWRELGEEIRQHTLENLDYYLMQLSENVSKRGGHVYFAKTKEEAAKYIQDVAKKKQAKKVVKSKSMVTEEISMNHALEEIGCEVLESDLGEYILQVDNDPPSHIIAPALHKNRTQIRDVFKEKLGYENSDDPYEMTKFVRKQLREKFMDAEIGVTGCNFAVANTGSLCLVTNEGNADLVMSIPKTQIAVMGMERMVPTMEELDVLVGLLCRSAVGQKLTSYVTVAGPIQEEEVDGPEEFHLVVVDNGRSQILGSEFRQVLQCIRCAACVNVCPVYRHVGGHSYGSIYSGPIGAVLTPLLGGYDDYKELPYASSLCGACTEACPVKIPLHDLLLKHRQVIVEQEGRAPLAEKLAMKMFSMGASSAALYKMGSKMAPAAMSPFTSGNRVSKGVGPLKNWTDIREFPAPSKERFRDWYKDHKKGGDK | not soluble
15 | MGSDKIHHHHHHMPPSFLWISSEVDLKVSSNGDCDHVVFLVDSHFNTCTESNYESFKVSCVAGTNTKDPTEFTKIELGHRPAGSTESPYDNSGFSVEFNGVFENSKQIECVLTRSSINREKRSSISTKKISKTKPKTQLHIFCYRICEIETKIQVISGRSIGSCRCRRNNKIIIPKNADLQILQRESESSHCHYREKNHKKLFHENSLPVMKFSVFNYNTQKW | not soluble
16 | MGHHHHHHSHKCNAGFFHTLSGECVPCDCNGNSNECLDGSGYCVTTDGEDPGFSASALSFILSSQGAREARAPT | not soluble
17 | MGSDKIHHHHHHMTRSFYWVDHSTQTFAERDLSKTVVVLPIAAVEQHGPHLPVDVDAAINAEIIRRTVARLQPDTDVLFLPPMMVGKSDEHIAFPGTLAISGETLRHVWLDLARSVKRAGAAKLILFNSHGGQMALMDIVCRDIRIELGMLAVSCSWFRIAPVEDLFSRAEIDHGIHGGDIETSMMLAIAPERVAMDKAENFVPLTVAIEKSGSMLTAEGAVGFGWQAQDLHPAGVCGNASNATAQKGQIVLDRAADGLVSLIAATQAFDLSQLTSQTRFSNLCRARRIP | not soluble
18 | MGSDKIHHHHHHMPTNVTAEYLAAEEEYRNAKTIPEKIRALEKMYALVPKHKGTEKLRLQIKRKLAELRKELEKQRQQRKGGGYSLAVKKEGAAQIVLVGLPNVGKSELLKALTGVDVESADYPFTTTEPVPAMLNYKDVQIQLVEVPGLIEGAALGKGMGPQLLAVVRNADAIAIVVDLSEDPVRQMNILLQEFERAGIKVNKKKPKVEIRKTPSGGIVINGIENIKGDIDEVMKMLREEKIHSAEITVMEPVTLEEFADALDDSLVWKKAIIIANKGDAPGSRANYEKLVKAFGERFKIIPVSAKKRINLEAVKEAIYEIADIIRVFTKSPGEEPAYPPIALRKGATVQDVAERIHKDLVKNFKYARVWGKSVKFPGQRVGLDHVLEDGDIVEIHAR | not soluble
19 | MSLRAKVTTKKYSVCEAPKVSEEELLSALVDRHKGKVQFIDFWATWCGGCRRTIKEYEPIKKELGENVAFVYLTGPSSIEKTWKILIQDIVGEHYWLNEKQWGYLWKHFQMKGLPMYLVIDKQGNIVKRFTHVTRKELEELLKQEINKEGHHHHHH | soluble
20 | QRKVSVAGAITTMDPAQLEVPATNIVNTLAGRVAGVIGVQSSGEPGKNISEFWVRGIGTFGANSGALVLIDGLEGSLSQIDAADVESFSVLKDAAATAVYGSRGANGVVLVTTKRGLES | not soluble
21 | MGSDKIHHHHHHMTEKADGKARIVRLGQILRIFMEKEKVSSTWLSRQFQTTPRTIQRDLLLLKKSGFPLHEIRKGIYQLHKDLVRNLEVFDDTELALVVALKNIVGQLGRPFQTAAGNILDHLYDCVKSMPVFVKIDDAVPLDSALLNRILQAILKKRTVSFQYAAPHGSHAVNLEPYRVVYFSGFWYLIGNEPSTGILKRYALDKIENFKSSRQCFTAIPSDLDDVLRQSANIWFTEDANIEITVHIDARVSDYFKRRKMYPTQEIKEERPDGSLVVTFRVGNYEAIRDILKSWIPHFVILEPEDFRVSMLNDIKGWVEKQEQQSCLDNISF | not soluble
22 | MGSDKIHHHHHHKDTKWVDVPTGTPPEGSVTGKPGETEEPDDPDPTDKTFINCSYIRGDFFETNRISGASMGACNDLIYLTARPYADGDLTFDLPVNDATLTGAATYAASYNGRNGVLKLDGTGKMNAGDGLLHSPDGAFKKFTFGTYIYVSEWVDGACLFKKVDGGSVVIAFQLGATEGNLKLTVGSATATVTNSALKSGAWHYVAVTYDGGAAKLYIDTNNTATDFTGSLPASVPNTRADFVMGENLKGYLDETFVNSLLMGTLGRNPISFDNWNNTKTLAYWKYDDAAKPGKDSHTWAIRLEQIRTALNGQAGDRKIRLGIAGGEWLKMVGNATARTNFANNVKKVIEQYNLDGADLDFEWAYSGTDLSNYSKAIVQLREVLGKDVFLTVSLHPVSYKISAEAIAAVDFISLQCYGPSVELFSMERFKSDGKAAVDYGIPQDKLVMGVPFYGTTGTAGEQAAYFDLVGKGNLTNTSADTWSYEGKNYTLNSQNTIRQKTQYVCENGFGGIMSWDLATDVDVTHEMSLLKAVKEELDYYANPTVE | not soluble
23 | MGSDKIHHHHHHVATGTGLVAIPAAEKVGSEGYVIGIDMTPGMLHQARIKIAAAKLQNIELIEADVEYFNFSESSFDVVFCCEAIVLVPDILAILKKWYRFLKPGGFVAFTCPPETAFMASLQQRICARVLGVSLPHILEPLGTPEKCRNLLNQAGFRDIEIKIEPSGRYRPLRDNRLSEIAININFKGNPLLSKLSQEQLNQLQVEYKAEIEKLATEQGIWEDTTKLFVRARK | not soluble
